# T1: recombinant human γc (human, UniProt P31785 23-262, limits assumed)
# T1 construct: also called common γ chain; IL-2Rγ
# T1 sequence (looked up): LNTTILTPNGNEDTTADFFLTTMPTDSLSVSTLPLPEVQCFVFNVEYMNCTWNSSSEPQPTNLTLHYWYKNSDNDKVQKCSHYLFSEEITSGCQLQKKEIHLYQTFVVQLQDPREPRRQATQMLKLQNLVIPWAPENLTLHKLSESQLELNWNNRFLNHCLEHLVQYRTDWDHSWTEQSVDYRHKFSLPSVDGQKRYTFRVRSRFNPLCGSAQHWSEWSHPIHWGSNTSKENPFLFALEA
# T2: recombinant human IL-2Rβ (human, UniProt P14784 27-240)
# T2 construct: also called CD122; interleukin 2 receptor β
# T2 sequence (looked up): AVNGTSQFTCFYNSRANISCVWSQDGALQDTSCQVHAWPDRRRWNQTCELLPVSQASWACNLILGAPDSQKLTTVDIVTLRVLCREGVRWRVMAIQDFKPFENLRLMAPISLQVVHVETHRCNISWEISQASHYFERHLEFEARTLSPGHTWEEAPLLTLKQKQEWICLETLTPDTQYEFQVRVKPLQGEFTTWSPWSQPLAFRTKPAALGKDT
# Experiments:
# recombinant human γc = biological target: T1, recombinant human γc; test: ELISA, scFv titrated (nM) on γc (IL-2Rγc)
# recombinant human IL-2Rβ = biological target: T2, recombinant human IL-2Rβ; test: ELISA, scFv titrated (nM) on IL-2Rβ
EC50 (read off the curve) (recombinant human γc) [nM],EC50 (read off the curve) (recombinant human IL-2Rβ) [nM],Binder
~60,,P1A3_FW2 single chain antibody (scFv) scFv: EVQLVESGGGLVQPGGSLRLSCAASGGSFSGYYWSWVRQAPGKGLEWVSEINHSGSTNYNPSLKSRFTISRDNSKNTLYLQMNSLRAEDTAVYYCARSPGGYSGGYFQHWGQGTLVTVSSGGGGSGGGGSGGGGSDIQMTQSPSSLSASVGDRVTITCRSSQSLLHSNGYNYLDWYQQKPGKAPKLLIYLGSNRDSGVPSRFSGSGSGTDFTLTISSLQPEDFATYYCMQGTHWPWTFGQGTKVEIK
,~1,P2C4_FW2 single chain antibody (scFv) scFv: EVQLVQSGAEVKKPGASVKVSCKASGYTFTNYYMHWVRQAPGQGLEWMGAIMPSRGGTSYPQKFQGRVTITADKSTSTAYMELSSLRSEDTAVYYCARGEYYYDSSGYYYWGQGTLVTVSSGGGGSGGGGSGGGGSQSVLTQPPSVSGAPGQRVTISCTGTSSDIGHYDFVSWYQQLPGTAPKLLIYDINNRPSGVPDRFSGSKSGTSASLAITGLQAEDEADYYCSAYTSSDTLVFGGGTKLTVL

# Reference: patent US20180208663A1 (AGENCY FOR SCIENCE TECHNOLOGY AND RESEARCH, published 2018)
